The values below come from US8652473B2, “Antibodies to EGF receptor epitope peptides and uses thereof” (Ludwig Institute for Cancer Research Ltd., priority 2004, dated 2014).

Marks after values point to notes of the source that are not given here.

One assay concerns the target T1, D^563H EGFR (Homo sapiens, UniProt P00533, D587H).
T1 construct: expressed in transfected cells
The assay can be described thus: Scatchard analysis of 125I-EGF binding, BaF/3 D563H. The settings on record: BaF/3 D^563H. How it is done:
(§1) Single point mutations of the wild-type EGFR were generated using a site-directed mutagenesis kit (Stratagene, La Jolla, Calif.). The template for each mutagenesis was the human EGFR cDNA; (24)) containing the leader sequence followed by a FLAG tag coding sequence, in the mammalian expression vector pcDNA3 (Invitrogen, Carlsbad, Calif.) as described in (4). The automated nucleotide sequencing of each construct was performed to confirm the integrity of each EGF receptor mutation. EGFR expression constructs were transiently expressed in 293 cells (American Type Culture Collection, Manassas, Va.) and the presence of receptor protein determined by staining with 528 and M2 antibodies to confirm expression at the cell surface and to ensure protein folding occurred appropriately (data not shown).
(§2) Wild-type and mutant EGFRs constructs were transfected into the IL-3-dependent murine hemopoietic cell line BaF/3 as described previously (25). Transfected cells were selected in G418 for 10 days. Viable cells were screened for EGFR expression by FACS analysis on a FACStar (Beckton and Dickinson, Franklin Lakes, N.J.) using antibodies to the flag tag (M2: 10 μg/ml in PBS/5% FCS/5 mMEDTA) and/or to the EGFR extracellular domain (mAb528: 10 μg/ml in PBS/5% FCS/5 mMEDTA) followed by Alexa 488-labelled anti-mouse Ig (1:400 final dilution). Background fluorescence was determined by incubating the cells with an irrelevant, class matched primary antibody. Positive pools were sorted for the appropriate level of EGFR expression on a FACS-DIVA (Becton and Dickinson). After final selection, mRNA was isolated from each cell line and all mutations in the EGFR were confirmed by PCR annalysis. All cells were routinely passaged in RPMI/10% FCS/10% WEHI3B conditioned medium (26) and 1.5 mg/ml G418.
(§3) Murine EGF, purified from mouse submaxillary glands (27), was iodinated using Iodogen (28) to a specific activity of 5-8×10^5 cpm/pmol. Ligand binding to cells expressing the wt or mutant EGFR was determined at room temperature in the presence of the […] (PAO) (29) by cold saturation experiments. Briefly, cells were incubated in PBS/1% BSA/30 μM PAO with or without increasing amounts of unlabelled EGF (20 pM-5.12 nM) and with a constant amount (300 pM) of ^125I EGF. Non-specific binding was determined using a 500-fold excess of unlabelled EGF over ^125I-EGF. All experimental points were prepared in triplicate. At the end of the incubation, the cells were pelleted and washed twice in ice-cold PBS before transferring to fresh tubes for counting in a Wallac WIZARD γ-counter (PerkinElmer, Boston, Mass.). Scatchard plots and estimates of ligand binding affinities and receptor numbers were obtained using the Radlig program (BioSoft, Cambridge, UK).

The target of the next assay is T2, wt-EGFR (Homo sapiens, UniProt P00533).
T2 construct: […]; expressed in transfected cells
The experiment in a line: Scatchard analysis of 125I-EGF binding, BaF/3 wt-EGFR. How it is done: as §1, §2, §3

The next assay addresses T3, L^245C/E^578C EGFR (Homo sapiens, UniProt P00533, E602C/L269C).
T3 construct: expressed in transfected cells
The assay can be described thus: Scatchard analysis of 125I-EGF binding, BaF/3 L245C/E578C. As to conditions: BaF/3 L^245C/E^578C; less than 10% of number by FACS or immunoblotting. How it is done: as §1
(§4) Wild-type and mutant EGFRs constructs were transfected into the IL-3-dependent murine hemopoietic cell line BaF/3 as described previously (25). […] Background fluorescence was determined by incubating the cells with an irrelevant, class matched primary antibody. […]
(§5) Murine EGF, purified from mouse submaxillary glands (27), was iodinated using Iodogen (28) to a specific activity of 5-8×10^5 cpm/pmol. Ligand binding to cells expressing the wt or mutant EGFR was determined at room temperature in the presence of the […] […] Non-specific binding was determined using a 500-fold excess of unlabelled EGF over ^125I-EGF. […]
Background: In flow cytometry, cells or beads pass a laser one at a time.

A further assay deals with T4, E^578C EGFR (Homo sapiens, UniProt P00533, E602C).
T4 construct: expressed in transfected cells
The experiment in a line: Scatchard analysis of 125I-EGF binding, BaF/3 E578C. The settings on record: BaF/3 E^578C. How it is done:
as §1, §4, §5

Another assay concerns the target T5, Y^246W EGFR (Homo sapiens, UniProt P00533, Y270W).
T5 construct: expressed in transfected cells
The experiment in a line: Scatchard analysis of 125I-EGF binding, BaF/3 Y246W. The settings on record: BaF/3 Y^246W. How it is done: as §1
as §2, with “All cells were routinely passaged in RPMI/10% FCS/10% WEHI3B conditioned medium (26) and 1.5 mg/ml G418.” left out
as §5

The target of the next assay is T6, V^583D EGFR (Homo sapiens, UniProt P00533, V607D).
T6 construct: expressed in transfected cells
The assay can be described thus: Scatchard analysis of 125I-EGF binding, BaF/3 V583D. As to conditions: BaF/3 V^583D. How it is done: as §1, §2, §3

A further assay deals with T7, Y^246D EGFR (Homo sapiens, UniProt P00533, Y270D).
T7 construct: expressed in transfected cells
The experiment in a line: Scatchard analysis of 125I-EGF binding, BaF/3 Y246D. As to conditions: BaF/3 Y^246D. How it is done: as §1
as §2, with “All cells were routinely passaged in RPMI/10% FCS/10% WEHI3B conditioned medium (26) and 1.5 mg/ml G418.” left out
as §5

The target of a further assay is T8, Y^246F EGFR (Homo sapiens, UniProt P00533, Y270F).
T8 construct: expressed in transfected cells
The experiment in a line: Scatchard analysis of 125I-EGF binding, BaF/3 Y246F. As to conditions: BaF/3 Y^246F. How it is done: as §1
as §2, with “All cells were routinely passaged in RPMI/10% FCS/10% WEHI3B conditioned medium (26) and 1.5 mg/ml G418.” left out
as §5

The mark [1] stands for this setting: high affinity sites, listed as 125I-EGF.

On to “EGF: Murine EGF purified from mouse submaxillary glands, iodinated for binding; EGFR ligand”, for which the “R/cell (from Bmax)” value with D^563H EGFR is on record as 2.3 +/− 0.8 R/cell × 10^−4; in the assay with wt-EGFR, 3.4 +/− 0.7 R/cell × 10^−4; with L^245C/E^578C EGFR, 0.37 +/− 0.002^b R/cell × 10^−4; with E^578C EGFR it was 3.45 +/− 0.12 R/cell × 10^−4; in the assay with Y^246W EGFR it was 2.9 +/− 0.2 R/cell × 10^−4; with V^583D EGFR it was 3.8 +/− 0.71 R/cell × 10^−4. The “R/cell (from Bmax)” value is listed as 1.2 +/− 0.1 R/cell × 10^−4 with Y^246D EGFR and 3.0 +/− 0.2 R/cell × 10^−4 with Y^246F EGFR. Further, the “[EGF] at which 500R/cell are occupied” value with D^563H EGFR (calculated from Kd and Bmax) is 8 pM; in the assay with wt-EGFR (calculated from Kd and Bmax) it was approximately 15 pM; with E^578C EGFR (calculated from Kd and Bmax), approximately 80 pM; in the assay with Y^246W EGFR (calculated from Kd and Bmax), approximately 60 pM; in the assay with V^583D EGFR (calculated from Kd and Bmax) it was less than 1 pM; with Y^246D EGFR (calculated from Kd and Bmax), 400 pM. For the same substance, the “[EGF] at which 500R/cell are occupied” value with Y^246F EGFR (calculated from Kd and Bmax) is reported as 30 pM. For the same substance, the “% of sites (Kd1)” value with D^563H EGFR (high affinity sites) was 4.4 +/− 0.7) %; with wt-EGFR (setting [1]), 2.6 +/− 0.4%; with V^583D EGFR (setting [1]), 12.6 +/− 4%. Also, the “% of sites (Kd2)” value with D^563H EGFR (low affinity sites) is given as 96.4 +/− 0.7%; in the assay with wt-EGFR (low affinity sites) it was 97.5 +/− 0.49%; with Y^246W EGFR, “(100) %”; with V^583D EGFR (low affinity sites), 90.8 +/− 1.9%; with Y^246D EGFR, “(100) %”; in the assay with Y^246F EGFR, “(100) %”.
